From patent publication US20180303952A1

What was measured:
[1] = molecular target: human CD147 on the surface of human cell lines (human) (UniProt P35613); assay: FACS on human KYSE-70 esophageal epithelial cell line, Alexa Fluor 647 goat anti-human IgG detection
[2] = molecular target: human CD147 on the surface of human cell lines (human) (UniProt P35613); assay: cell-based or functional assay

B1: humanized anti-human CD147 monoclonal antibody hu 3A11 Lc1/Hc1 (antibody, V domains shown)
VH: EVQLVESGGGLVQPGGSLRLSCAASGFTFSNYWMDWVRQAPGKGLEWVGEIRLKSYNYATHYAASVKGRFTISRDDSKNSVYLQMNSLKTEDTAVYYCTAAGTDYWGQGTLVTVSS
VL: DIQMTQSPSSLSASVGDRVTITCRASQSVRTDVGWYQQKPGKAPKLLIYYSSNRYTGVPSRFSGSGSGTDFTLTISSLQPEDFATYYCQQDYSSPYTFGQGTKLEIK
Kd [1]: 1.65 nM
EC50 of cytotoxicity, A253 cells (with vc-MMAE secondary antibody) [2]: < 1 nM
EC50 of cytotoxicity, BHY cells (with vc-MMAE secondary antibody) [2]: < 1 nM
EC50 of cytotoxicity, Detroit562 cells (with vc-MMAE secondary antibody) [2]: 0.008 nM
EC50 of cytotoxicity, EFO-21 cells (with vc-MMAE secondary antibody) [2]: 1.4 nM
EC50 of cytotoxicity, H69 cells (with vc-MMAE secondary antibody) [2]: 1 nM
EC50 of cytotoxicity, H292 cells (with vc-MMAE secondary antibody) [2]: 0.07 nM
EC50 of cytotoxicity, H358 cells (with vc-MMAE secondary antibody) [2]: 0.09 nM
EC50 of cytotoxicity, H520 cells (with vc-MMAE secondary antibody) [2]: 11.2 nM
EC50 of cytotoxicity, H1581 cells (with vc-MMAE secondary antibody) [2]: 0.039 nM
EC50 of cytotoxicity, H1975 cells (with vc-MMAE secondary antibody) [2]: 0.09 nM
EC50 of cytotoxicity, H2405 cells (with vc-MMAE secondary antibody) [2]: 0.3 nM
EC50 of cytotoxicity, H2444 cells (with vc-MMAE secondary antibody) [2]: 1.8 nM
EC50 of cytotoxicity, HCC 70 cells (with vc-MMAE secondary antibody) [2]: 0.94 nM
EC50 of cytotoxicity, HCC1143 cells (with vc-MMAE secondary antibody) [2]: < 1 nM
EC50 of cytotoxicity, HCC 1806 cells (with vc-MMAE secondary antibody) [2]: 0.68 nM
EC50 of cytotoxicity, HCC1937 cells (with vc-MMAE secondary antibody) [2]: < 1 nM
EC50 of cytotoxicity, HCC1954 cells (with vc-MMAE secondary antibody) [2]: < 1 nM
EC50 of cytotoxicity, HCT 116 cells (with vc-MMAE secondary antibody) [2]: 1.8 nM
EC50 of cytotoxicity, HPAC cells (with vc-MMAE secondary antibody) [2]: 0.21 nM
EC50 of cytotoxicity, HPAF2 cells (with vc-MMAE secondary antibody) [2]: < 1 nM
EC50 of cytotoxicity, KYSE70 cells (with vc-MMAE secondary antibody) [2]: 0.13 nM
EC50 of cytotoxicity, KYSE150 cells (with vc-MMAE secondary antibody) [2]: 1.6 nM
EC50 of cytotoxicity, LOVO cells (with vc-MMAE secondary antibody) [2]: < 1 nM
EC50 of cytotoxicity, LS174T cells (with vc-MMAE secondary antibody) [2]: 1 nM
EC50 of cytotoxicity, LS411N cells (with vc-MMAE secondary antibody) [2]: < 1 nM
EC50 of cytotoxicity, PC3 cells (with vc-MMAE secondary antibody) [2]: < 1 nM
EC50 of cytotoxicity, RT11-2/84 cells (with vc-MMAE secondary antibody) [2]: 1.94 nM
EC50 of cytotoxicity, SCC1 cells (with vc-MMAE secondary antibody) [2]: 0.14 nM
EC50 of cytotoxicity, SCC9 cells (with vc-MMAE secondary antibody) [2]: 0.37 nM
EC50 of cytotoxicity, SCC25 cells (with vc-MMAE secondary antibody) [2]: 0.2 nM
EC50 of cytotoxicity, SKOV3 cells (with vc-MMAE secondary antibody) [2]: 0.95 nM
EC50 of cytotoxicity, SW1417 cells (with vc-MMAE secondary antibody) [2]: 0.8 nM
EC50 of cytotoxicity, aspc1 cells (with vc-MMAE secondary antibody) [2]: 20.5 nM
EC50 of cytotoxicity, miapaca1 cells (with vc-MMAE secondary antibody) [2]: 0.65 nM
EC50 of cytotoxicity, sw48 cells (with vc-MMAE secondary antibody) [2]: < 1 nM
EC50 of cytotoxicity, sw480 cells (with vc-MMAE secondary antibody) [2]: < 1 nM
EC50 of in vitro cytotoxicity, A253 cells (with vc-MMAE secondary antibody) [2]: < 1 nM
EC50 of in vitro cytotoxicity, AGS cells (with vc-MMAE secondary antibody) [2]: 0.09 nM
EC50 of in vitro cytotoxicity, BHY cells (with vc-MMAE secondary antibody) [2]: < 1 nM
EC50 of in vitro cytotoxicity, Detroit562 cells (with vc-MMAE secondary antibody) [2]: 0.008 nM
EC50 of in vitro cytotoxicity, EFO-21 cells (with vc-MMAE secondary antibody) [2]: 1.4 nM
EC50 of in vitro cytotoxicity, ESO26 cells (with vc-MMAE secondary antibody) [2]: 0.06 nM
EC50 of in vitro cytotoxicity, FLO-1 cells (with vc-MMAE secondary antibody) [2]: 0.51 nM
EC50 of in vitro cytotoxicity, H69 cells (with vc-MMAE secondary antibody) [2]: 1 nM
EC50 of in vitro cytotoxicity, H226 cells (with vc-MMAE secondary antibody) [2]: 0.45 nM
EC50 of in vitro cytotoxicity, H292 cells (with vc-MMAE secondary antibody) [2]: 0.07 nM
EC50 of in vitro cytotoxicity, H358 cells (with vc-MMAE secondary antibody) [2]: 0.09 nM
EC50 of in vitro cytotoxicity, H520 cells (with vc-MMAE secondary antibody) [2]: 11.2 nM
EC50 of in vitro cytotoxicity, H1581 cells (with vc-MMAE secondary antibody) [2]: 0.039 nM
EC50 of in vitro cytotoxicity, H1975 cells (with vc-MMAE secondary antibody) [2]: 0.09 nM
EC50 of in vitro cytotoxicity, H2052 cells (with vc-MMAE secondary antibody) [2]: 0.03 nM
EC50 of in vitro cytotoxicity, H2405 cells (with vc-MMAE secondary antibody) [2]: 0.3 nM
EC50 of in vitro cytotoxicity, H2444 cells (with vc-MMAE secondary antibody) [2]: 1.8 nM
EC50 of in vitro cytotoxicity, H2452 cells (with vc-MMAE secondary antibody) [2]: 0.94 nM
EC50 of in vitro cytotoxicity, HCC 70 cells (with vc-MMAE secondary antibody) [2]: 0.94 nM
EC50 of in vitro cytotoxicity, HCC1143 cells (with vc-MMAE secondary antibody) [2]: < 1 nM
EC50 of in vitro cytotoxicity, HCC 1806 cells (with vc-MMAE secondary antibody) [2]: 0.68 nM
EC50 of in vitro cytotoxicity, HCC1937 cells (with vc-MMAE secondary antibody) [2]: < 1 nM
EC50 of in vitro cytotoxicity, HCC1954 cells (with vc-MMAE secondary antibody) [2]: < 1 nM
EC50 of in vitro cytotoxicity, HCT 116 cells (with vc-MMAE secondary antibody) [2]: 1.8 nM
EC50 of in vitro cytotoxicity, HPAC cells (with vc-MMAE secondary antibody) [2]: 0.21 nM
EC50 of in vitro cytotoxicity, HPAF2 cells (with vc-MMAE secondary antibody) [2]: < 1 nM
EC50 of in vitro cytotoxicity, HT29 (WIDR) cells (with vc-MMAE secondary antibody) [2]: 0.87 nM
EC50 of in vitro cytotoxicity, Hs 746T cells (with vc-MMAE secondary antibody) [2]: 0.06 nM
EC50 of in vitro cytotoxicity, KYSE70 cells (with vc-MMAE secondary antibody) [2]: 0.13 nM
EC50 of in vitro cytotoxicity, KYSE150 cells (with vc-MMAE secondary antibody) [2]: 0.88 nM
EC50 of in vitro cytotoxicity, KYSE410 cells (with vc-MMAE secondary antibody) [2]: 1.35 nM
EC50 of in vitro cytotoxicity, LOVO cells (with vc-MMAE secondary antibody) [2]: < 1 nM
EC50 of in vitro cytotoxicity, LS174T cells (with vc-MMAE secondary antibody) [2]: 1 nM
EC50 of in vitro cytotoxicity, LS411N cells (with vc-MMAE secondary antibody) [2]: < 1 nM
EC50 of in vitro cytotoxicity, MSTO-211H cells (with vc-MMAE secondary antibody) [2]: 0.37 nM
EC50 of in vitro cytotoxicity, OACM5.1 C cells (with vc-MMAE secondary antibody) [2]: 1.1 nM
EC50 of in vitro cytotoxicity, OE33 cells (with vc-MMAE secondary antibody) [2]: 0.29 nM
EC50 of in vitro cytotoxicity, PC3 cells (with vc-MMAE secondary antibody) [2]: < 1 nM
EC50 of in vitro cytotoxicity, RT11-2/84 cells (with vc-MMAE secondary antibody) [2]: 1.94 nM
EC50 of in vitro cytotoxicity, SCC1 cells (with vc-MMAE secondary antibody) [2]: 0.14 nM
EC50 of in vitro cytotoxicity, SCC9 cells (with vc-MMAE secondary antibody) [2]: 0.37 nM
EC50 of in vitro cytotoxicity, SCC25 cells (with vc-MMAE secondary antibody) [2]: 0.2 nM
EC50 of in vitro cytotoxicity, SK-GT-4 cells (with vc-MMAE secondary antibody) [2]: < 0.1 nM
EC50 of in vitro cytotoxicity, SKBR3 cells (with vc-MMAE secondary antibody) [2]: 0.38 nM
EC50 of in vitro cytotoxicity, SKOV3 cells (with vc-MMAE secondary antibody) [2]: 0.95 nM
EC50 of in vitro cytotoxicity, SNU-1 cells (with vc-MMAE secondary antibody) [2]: 0.21 nM
EC50 of in vitro cytotoxicity, SNU-5 cells (with vc-MMAE secondary antibody) [2]: 0.11 nM
EC50 of in vitro cytotoxicity, SNU-16 cells (with vc-MMAE secondary antibody) [2]: 1.14 nM
EC50 of in vitro cytotoxicity, SW1417 cells (with vc-MMAE secondary antibody) [2]: 0.8 nM
EC50 of in vitro cytotoxicity, aspc1 cells (with vc-MMAE secondary antibody) [2]: 20.5 nM
EC50 of in vitro cytotoxicity, miapaca1 cells (with vc-MMAE secondary antibody) [2]: 0.65 nM
EC50 of in vitro cytotoxicity, sw48 cells (with vc-MMAE secondary antibody) [2]: < 1 nM
EC50 of in vitro cytotoxicity, sw480 cells (with vc-MMAE secondary antibody) [2]: < 1 nM
